Experimental findings from patent publication US20230038878A1 (EVER SUPREME BIO TECHNOLOGY, published 2023) are described below.

The target of assay [1] is HLA-G recombinant protein (Origene, CAT #: TP305216) (human) (UniProt P17693). In words: competitive ELISA; competitor biotinylated KIR2DL4 on HLA-G recombinant protein. A general note: In an ELISA, binding on a coated surface is turned into a signal by an enzyme label.
Assay [2] has the same target. In words: competitive ELISA; competitor biotinylated LILRB1 on HLA-G recombinant protein.
Assay [3] has the same target. In words: competitive ELISA on HLA-G recombinant protein; blocked ligand: biotinylated LILRB1.
For assay [4] the target is unchanged. In words: competitive ELISA on HLA-G recombinant protein; blocked ligand: biotinylated KIR2DL4.
Assay [5] addresses T1, PD-L1 recombinant protein (Sino Biological, CAT #: 10084-H05H) (UniProt Q9NZQ7 19-239).
T1 construct: Bought protein; also called programmed death-ligand 1
In words: SPR. The procedure: The kinetic analysis of the PD-L1 nanobodies of the present disclosure and the binding affinity analysis of the PD-L1 recombinant protein (Sino Biological, CAT #: 10084-H05H) are performed by SPR analysis.

The target of assay [6] is T2, PD-L1 on PD-L1 aAPC/CHO-K1 cells (PD-1/PD-L1 Blockade Bioassay Kit, Promega) (UniProt Q9NZQ7 19-290, limits assumed). In words: cell-based or functional assay.
T2 sequence (Q9NZQ7 19-290 limits assumed): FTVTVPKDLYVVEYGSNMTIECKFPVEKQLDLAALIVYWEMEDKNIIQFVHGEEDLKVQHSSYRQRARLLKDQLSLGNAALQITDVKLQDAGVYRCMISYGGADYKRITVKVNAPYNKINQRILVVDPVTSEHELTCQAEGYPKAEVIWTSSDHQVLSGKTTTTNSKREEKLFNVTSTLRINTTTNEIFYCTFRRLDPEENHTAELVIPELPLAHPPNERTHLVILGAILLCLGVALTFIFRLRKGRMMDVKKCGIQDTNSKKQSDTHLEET
Assay [7] has as its target T2, PD-L1 on PD-L1 aAPC/CHO-K1 cells …. In words: cell-based or functional assay. This is another data set of the same source.

T1 sequence (Q9NZQ7 19-239 limits assumed): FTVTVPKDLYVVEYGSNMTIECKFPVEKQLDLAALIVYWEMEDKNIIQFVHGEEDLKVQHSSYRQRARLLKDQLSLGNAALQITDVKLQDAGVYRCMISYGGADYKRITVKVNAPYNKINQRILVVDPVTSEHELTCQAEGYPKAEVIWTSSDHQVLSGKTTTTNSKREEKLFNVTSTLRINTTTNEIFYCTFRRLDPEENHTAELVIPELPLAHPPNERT

In the case of “HLA-G monoclonal antibody (87G, ThermoFisher)”, the IC50 was 104 nM in assay [1] and more than 1000 nM in assay [2]. The IC50 (read off the curve) was determined as 7000 nM in assay [3] and 100 nM in assay [4].

B1: PD-L1 Nb #15 (VHH)
VHH: HVQLVESGGGLVQPGGSLRLSCAASGFTFSSKAMSWVRQAPGKGLDWVSTINSGGGNTYYSDSVKGRFTISRDNAKNTLYLQLNSLKTEDTAMYYCSRCSDIYCGGQYTYRGQGTLVTVSS
notes: Prepared as a free nanobody; also called PD-L1 nanobody
Consider B1, for which, in assay [5], the Kd is 0.91 nM, the koff is 0.000936 s⁻¹ and the association rate constant (kon) came to 1.03e+06 M⁻¹ s⁻¹. The “IC50 for the PD-1 blocking activity (PD-1/PD-L1 Blockade Bioassay, luminescence)” value in assay [6] was approximately 0.48 nM.

B2: PD-L1 Nb #3 (VHH)
VHH: EVQLVESGGGLVQPGGSLRLSCVASGFTFSSIGMSWVRQAPGKGLEWVSGLNPVGSHTGYADSVKGRFTISRDNAKNTLHLQLNSLKTEDTAMYYCQRGYTCSGDLCERGQGTQVTVSS
notes: as for B1
For B2, in assay [7], the “IC50 (read off the curve); PD-1/PD-L1 Blockade Bioassay (Promega), bioluminescence (RLU), which rises with the concentration” value is approximately 20 nM. In assay [5], the Kd stood at 0.86 nM, the koff came to 0.00521 s⁻¹ and the kon is 6.04e+06 M⁻¹ s⁻¹. Also, in assay [6], the “IC50 for the PD-1 blocking activity (PD-1/PD-L1 Blockade Bioassay, luminescence)” value is approximately 37.7 nM.

Broadly, the IC50 is the concentration at which inhibition is half-maximal. A word on the Kd: it is the equilibrium constant for the complex coming apart. For orientation: koff means the first-order rate constant of dissociation. In general, kon refers to the rate constant with which the complex forms.
